In the assay the target is Arabidopsis thaliana NAP1-related protein 1 (NRP1) (A. thaliana) (UniProt Q9CA59). The experiment in a line: ITC. A general note: In ITC the heat of successive injections is recorded.
Chain of Arabidopsis thaliana NAP1-related protein 1 (NRP1) (A. thaliana) (Q9CA59 whole entry): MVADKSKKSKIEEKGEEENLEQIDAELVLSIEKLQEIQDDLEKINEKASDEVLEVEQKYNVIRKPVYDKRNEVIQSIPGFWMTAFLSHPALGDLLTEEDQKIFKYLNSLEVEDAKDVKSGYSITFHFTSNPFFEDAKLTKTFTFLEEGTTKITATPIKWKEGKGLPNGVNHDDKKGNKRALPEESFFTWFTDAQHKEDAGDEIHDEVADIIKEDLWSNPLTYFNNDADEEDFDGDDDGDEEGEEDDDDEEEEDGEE

Substance “Xenopus laevis core histone H4 (from UniProt P62799 1-103) (natural protein)” had a dH of -10.4 kcal/mol. In general, Kd refers to a measure of binding affinity in units of concentration. Regarding “Arabidopsis thaliana cytochrome c (from UniProt Q9T0G2 1-112) (natural protein)”, the Kd came to 5000 nM. In the case of “Chicken erythrocyte H2A–H2B histone dimer (from UniProt P02263 1-129; P0C1H3 1-126) (complex)”, the Kd amounted to 100 nM.
